For one series, the target named is T1, IL-2 protein (Homo sapiens, UniProt P60568, C145S).
T1 construct: made in house; host or cells: Escherichia coli
Put plainly: Isothermal titration calorimetry (ITC), interaction with IL-2. Format: binding. As to conditions: SDS with IL-2, 7.69 mM sodium phosphate buffer, 25° C.; read-out: equilibrium dissociation constant Kd. As for the experimental part: (1) Preparation of samples: • A. PEG2000-DSPE solution: dissolved in 10 mM sodium acetate buffer (pH=5.5), with a concentration of 0.5 mM; • B. SDS solution: dissolved in 7.69 mM sodium phosphate buffer (pH=7.6), with a concentration of 1.73 mM; • C. IL-2 solution: dissolved in 10 mM sodium acetate buffer (pH=5.5), with a concentration of 0.005 mM; • D. IL-2 solution: dissolved in 7.69 mM sodium phosphate buffer (pH=7.0), with a concentration of 0.0164 mM.
10 The MicroCal ITC 200 isothermal titration calorimeter and its supporting operating software from Malvern Panalytical Company were used. Refer to the table below for specific parameter settings:
(3) To determine the interaction between PEG2000-PE and IL-2, 40 μl sample A was added to the syringe, and 250 μl sample C was added to the sample cell. To determine the interaction between SDS and IL-2, 40 μl sample B was added to the syringe, and 250 μl sample D was added to the cell. […] After the reaction was completed, the measured heat change was integrated and subjected to reaction curve fitting (FIG. 4) to calculate various parameters of the interaction between the two samples, wherein the K value measured in the ITC is the binding constant, with a unit of M-1, and its reciprocal is the dissociation constant Kd of the two substances, with a unit of M. The smaller the Kd value, the stronger the affinity between the two substances.
In general terms: Isothermal titration calorimetry measures the heat released or taken up as one component is titrated into another.

The conditions of series [1]: in serum in vivo; cited from earlier work.
In another series the target is T2, βγ dimer (Homo sapiens, UniProt P14784+P31785).
T2 sequence (P14784 27-551): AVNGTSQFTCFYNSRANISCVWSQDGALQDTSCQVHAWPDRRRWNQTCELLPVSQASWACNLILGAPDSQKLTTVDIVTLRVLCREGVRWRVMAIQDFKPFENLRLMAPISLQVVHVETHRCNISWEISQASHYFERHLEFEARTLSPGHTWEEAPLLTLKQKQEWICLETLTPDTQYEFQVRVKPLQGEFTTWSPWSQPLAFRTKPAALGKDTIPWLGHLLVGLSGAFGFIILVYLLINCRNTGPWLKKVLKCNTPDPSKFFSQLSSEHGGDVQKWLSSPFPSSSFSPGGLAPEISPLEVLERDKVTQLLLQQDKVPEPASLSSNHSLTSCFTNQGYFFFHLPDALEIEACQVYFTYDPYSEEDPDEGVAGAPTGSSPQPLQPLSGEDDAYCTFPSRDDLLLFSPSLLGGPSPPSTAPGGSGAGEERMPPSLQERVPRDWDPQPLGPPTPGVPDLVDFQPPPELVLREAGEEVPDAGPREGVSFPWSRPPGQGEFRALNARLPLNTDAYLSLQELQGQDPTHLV
T2 sequence (P31785 23-369): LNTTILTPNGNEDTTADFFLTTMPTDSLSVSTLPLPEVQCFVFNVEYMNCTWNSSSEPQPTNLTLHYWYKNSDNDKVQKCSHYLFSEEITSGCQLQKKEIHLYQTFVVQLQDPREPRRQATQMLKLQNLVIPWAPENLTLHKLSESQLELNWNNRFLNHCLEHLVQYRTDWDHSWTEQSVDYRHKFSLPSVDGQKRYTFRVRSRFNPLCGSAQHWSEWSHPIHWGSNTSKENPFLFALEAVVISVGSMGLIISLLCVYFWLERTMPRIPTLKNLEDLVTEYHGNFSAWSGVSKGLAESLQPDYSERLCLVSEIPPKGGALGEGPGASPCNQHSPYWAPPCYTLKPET
The following applies: medium affinity; cited from earlier work.

pKd: −log10 of the molar value.

T1 sequence (P60568 21-153 C145S): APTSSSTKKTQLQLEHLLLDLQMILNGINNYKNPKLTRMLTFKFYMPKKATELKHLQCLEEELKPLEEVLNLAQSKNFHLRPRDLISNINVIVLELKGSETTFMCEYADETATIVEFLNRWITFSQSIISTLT

For `CCCCCCCCCCCCOS(=O)(=O)[O-].[Na+]` [SDS, sodium dodecyl sulfate], the pKd on IL-2 protein is about 4.43.
Turning to “IL2: T cell growth factor, glycoprotein of four α-helices, molecular weight 15.5 Kd”, in series [1], the half-life is 10 to 85 min. Also, the pKd in the series with βγ dimer was about 9.00.

In general, pKd refers to the Kd on a negative log10 scale, so that one unit is a factor of ten. As a reminder, the half-life is the time needed for the level to fall by half in the phase considered.

The values are drawn from patent US20250108091A1, “PROTEIN FORMULATION, PREPARATION METHOD THEREFOR AND USE THEREOF” (BEIJING LIANGYUAN BIO-SCIENCE, LLC, priority 2022, published 2025).
